{"source": "paper PMC7103410", "biological_target": "M116, the C-terminal 116 amino acids of SARS-CoV membrane (M) protein (recombinant cytoplasmic region) (SARS-CoV)", "test": "SPR", "data": [{"substance": "N peptide 101–115", "values": [{"measurement": "Kd", "value": 730, "unit": "nM"}]}]}
